Source: US20210063414A1, “METHODS FOR PREVENTING AND/OR TREATING BONE LOSS CONDITIONS BY MODULATING IRISIN” (Dana-Farber Cancer Institute, Inc., priority 2018, published 2021)

What was measured:
Experiment in all cases: Crosslinking/co-immunoprecipitation/mass spectrometry (TMT quantitative proteomics) to identify irisin receptors
Assay type in all cases: binding
[1] = molecular target: T1, MLO-Y4 cell surface proteins (Mus musculus, UniProt G3X9C2); settings: co-precipitated protein Nccrp1 (FBX50_MOUSE)
T1 construct: endogenous in cells; host or cells: MLO-Y4
T1 sequence (G3X9C2 1-266): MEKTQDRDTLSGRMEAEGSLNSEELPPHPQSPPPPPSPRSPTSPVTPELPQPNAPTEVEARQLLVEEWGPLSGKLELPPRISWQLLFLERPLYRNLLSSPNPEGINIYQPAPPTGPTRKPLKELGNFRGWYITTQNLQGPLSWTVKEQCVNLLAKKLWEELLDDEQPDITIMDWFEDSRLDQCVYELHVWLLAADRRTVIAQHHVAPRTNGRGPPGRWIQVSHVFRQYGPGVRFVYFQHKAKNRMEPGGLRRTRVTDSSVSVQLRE
Summary of the method: (§1)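 Mouse MLO-Y4 cells were switched to serum-free FreeStyle medium for 4 h, chilled, then exposed to 10 nM His-tagged irisin (or adipsin as control) for 20 min. Cells were crosslinked with 1.5 mM DTSSP (30 min, ice), and bound proteins were pulled down on Ni-NTA and eluted with 250 mM imidazole. Eluates were separated by SDS-PAGE, trypsin-digested in gel, TMT 6-plex labelled and quantified by MS3-based LC-MS/MS on an Orbitrap Fusion Lumos.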

[2] = molecular target: T2, MLO-Y4 cell surface proteins (Mus musculus, UniProt O70404); settings: co-precipitated protein Vamp8 (VAMP8_MOUSE)
T2 construct: endogenous in cells; host or cells: MLO-Y4
T2 sequence (O70404 1-101): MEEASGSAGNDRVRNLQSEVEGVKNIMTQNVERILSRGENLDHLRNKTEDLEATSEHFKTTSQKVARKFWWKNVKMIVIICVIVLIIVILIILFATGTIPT
Summary of the method: as §1

[3] = molecular target: T3, MLO-Y4 cell surface proteins (Mus musculus, UniProt Q791V5); settings: co-precipitated protein Mteh2 (MTCH2_MOUSE)
T3 construct: endogenous in cells; host or cells: MLO-Y4
T3 sequence (Q791V5 1-303): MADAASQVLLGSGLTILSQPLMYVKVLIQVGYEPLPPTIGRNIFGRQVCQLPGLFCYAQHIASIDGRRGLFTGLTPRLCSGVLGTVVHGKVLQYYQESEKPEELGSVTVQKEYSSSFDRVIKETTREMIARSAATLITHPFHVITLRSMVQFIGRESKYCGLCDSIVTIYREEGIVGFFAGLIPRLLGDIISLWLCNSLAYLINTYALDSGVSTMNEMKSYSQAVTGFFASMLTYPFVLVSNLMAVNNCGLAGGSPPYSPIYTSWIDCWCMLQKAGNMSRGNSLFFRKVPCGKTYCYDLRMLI
Summary of the method: as §1

B1: irisin: secreted cleaved form of FNDC5; recombinant human/mouse irisin with C-terminal his tag produced in HEK293 cells (protein)
chain: DSPSAPVNVTVRHLKANSAVVSWDVLEDEVVIGFAISQQKKDVRMLRFIQEVNTTTRSCALWDLEEDTEYIVHVQAISIQGQSPASEPVLFKTPREAEKMASKNKDEVTMKE
modifications: left off: small tags and cut ends
notes: secreted cleaved form of FNDC5; recombinant human/mouse irisin with C-terminal his tag produced in HEK293 cells
With B1 the TMT signal-to-noise ratio [1] was 0, the “irisin/adipsin TMT signal-to-noise ratio” value [1] was 0.000 and the TMT signal-to-noise ratio [2] was 169.775. For the same molecule, the “irisin/adipsin TMT signal-to-noise ratio” value [2] was 0.566, the TMT signal-to-noise ratio [3] was 5.766 and the “irisin/adipsin TMT signal-to-noise ratio” value [3] was 0.057.
